Experimental data from paper PMC4335062, “Data-Driven Prediction and Design of bZIP Coiled-Coil Interactions” (PLoS Computational Biology, 2015).
“And” between values parts separate entries of the source, which are not always exact repeats. Equal entries are not always repeated. Values belong to the binder of their own block, whether it stands above or below them. Where no end group is shown, it is not given here.

Tests used:
[1] = molecular target: the molecule itself; experiment: FRET or BRET; direct-binding FRET of the designed peptide with itself (row 'homodimer'; dimer to monomers); acceptor-labelled design titrated into donor-labelled design by note 1 of the tables; 4 °C
ATF6B = ATF6B (Homo sapiens, UniProt Q99941); experiment: FRET or BRET; direct-binding FRET in 384-well plates; rhodamine-labelled design (acceptor) titrated 0 to 1 uM into 10 nM fluorescein-labelled bZIP (donor); 150 mM KCl, 50 mM potassium phosphate pH 7.4, 0.1% Tween-20, 0.1% BSA; 4 °C
BACH1 = BACH1 (Homo sapiens, UniProt O14867); experiment: as above
FOS = FOS (Homo sapiens, UniProt P01100); experiment: as above
MAF = MAF (Homo sapiens, UniProt O75444); experiment: as above
MAFB = MAFB (Homo sapiens, UniProt Q9Y5Q3); experiment: as above
MAFF (human) = MAFF (human) (UniProt Q9ULX9); experiment: as above
MAFG [2] = molecular target: T1, MAFG (Homo sapiens, UniProt O15525); experiment: as above
NFE2L3 (human) = NFE2L3 (human) (UniProt Q9Y4A8); experiment: as above
NFIL3 (human) = NFIL3 (human) (UniProt Q16649); experiment: as above
ATF2 (human) = ATF2 (human) (UniProt P15336); experiment: FRET or BRET; direct-binding FRET in 384-well plates; rhodamine-labelled design (acceptor) titrated 0 to 1 uM into 10 nM fluorescein-labelled bZIP (donor); 150 mM KCl, 50 mM potassium phosphate pH 7.4, 0.1% Tween-20, 0.1% BSA; 37 °C
MAFG [3] = molecular target: T1, MAFG; experiment: as above
[4] = molecular target: X-box binding protein 1 (human) (UniProt P17861); experiment: as above
[5] = molecular target: Activating Transcription Factor (ATF) 3 (human) (UniProt P18847); experiment: FRET or BRET; direct-binding FRET in 384-well plates; rhodamine-labelled design (acceptor) titrated 0 to 1 uM into 10 nM fluorescein-labelled bZIP (donor); 150 mM KCl, 50 mM potassium phosphate pH 7.4, 0.1% Tween-20, 0.1% BSA; 4 °C
BACH2 [6] = molecular target: T2, BACH2 (Homo sapiens, UniProt Q9BYV9); experiment: as above
BACH2 [7] = molecular target: T2, BACH2; experiment: FRET or BRET; direct-binding FRET in 384-well plates; rhodamine-labelled design (acceptor) titrated 0 to 1 uM into 10 nM fluorescein-labelled bZIP (donor); 150 mM KCl, 50 mM potassium phosphate pH 7.4, 0.1% Tween-20, 0.1% BSA; 37 °C
HLF (human) = HLF (human) (UniProt Q16534); experiment: as above
NFE2L1 = NFE2L1 (Homo sapiens, UniProt Q14494); experiment: as above

Chain of NFIL3 (human) (Q16649 whole entry): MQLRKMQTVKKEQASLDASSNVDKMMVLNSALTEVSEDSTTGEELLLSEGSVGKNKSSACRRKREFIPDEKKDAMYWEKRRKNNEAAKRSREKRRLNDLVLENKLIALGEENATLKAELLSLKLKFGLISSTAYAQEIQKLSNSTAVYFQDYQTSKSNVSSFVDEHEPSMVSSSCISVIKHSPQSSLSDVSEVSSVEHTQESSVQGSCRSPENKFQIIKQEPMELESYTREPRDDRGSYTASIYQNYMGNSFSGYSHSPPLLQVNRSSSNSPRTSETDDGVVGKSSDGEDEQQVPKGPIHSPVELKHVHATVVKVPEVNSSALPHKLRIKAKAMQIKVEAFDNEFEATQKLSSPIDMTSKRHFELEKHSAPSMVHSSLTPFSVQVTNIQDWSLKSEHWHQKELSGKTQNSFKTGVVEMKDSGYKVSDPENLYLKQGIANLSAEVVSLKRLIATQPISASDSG
T2 sequence (Q9BYV9 whole entry): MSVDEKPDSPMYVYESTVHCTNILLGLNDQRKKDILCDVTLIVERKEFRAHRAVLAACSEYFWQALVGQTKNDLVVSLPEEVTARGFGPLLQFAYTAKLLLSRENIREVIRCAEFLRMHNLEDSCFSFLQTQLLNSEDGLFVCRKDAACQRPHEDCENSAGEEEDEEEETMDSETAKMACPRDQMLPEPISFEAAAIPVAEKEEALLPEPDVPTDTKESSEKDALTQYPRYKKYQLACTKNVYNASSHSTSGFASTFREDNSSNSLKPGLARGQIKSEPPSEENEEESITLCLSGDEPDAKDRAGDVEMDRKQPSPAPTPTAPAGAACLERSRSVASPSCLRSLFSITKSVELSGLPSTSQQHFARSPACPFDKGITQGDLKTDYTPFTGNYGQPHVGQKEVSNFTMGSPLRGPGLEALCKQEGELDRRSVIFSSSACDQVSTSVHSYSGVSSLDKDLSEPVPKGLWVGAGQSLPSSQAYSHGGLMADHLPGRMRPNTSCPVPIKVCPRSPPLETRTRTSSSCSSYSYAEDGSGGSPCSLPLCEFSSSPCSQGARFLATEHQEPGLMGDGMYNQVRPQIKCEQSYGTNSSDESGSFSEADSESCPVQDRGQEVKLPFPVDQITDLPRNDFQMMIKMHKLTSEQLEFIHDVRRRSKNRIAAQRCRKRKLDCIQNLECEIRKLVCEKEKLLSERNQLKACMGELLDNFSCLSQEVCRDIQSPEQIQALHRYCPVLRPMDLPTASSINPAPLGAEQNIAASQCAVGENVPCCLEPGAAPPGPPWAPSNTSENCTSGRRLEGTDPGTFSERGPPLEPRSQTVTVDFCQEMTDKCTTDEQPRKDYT
T1 sequence (O15525 whole entry): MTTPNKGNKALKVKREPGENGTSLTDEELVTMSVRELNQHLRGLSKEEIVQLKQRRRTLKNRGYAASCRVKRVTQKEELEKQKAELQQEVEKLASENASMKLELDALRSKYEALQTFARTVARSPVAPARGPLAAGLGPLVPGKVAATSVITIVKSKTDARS
Chain of FOS (P01100 whole entry): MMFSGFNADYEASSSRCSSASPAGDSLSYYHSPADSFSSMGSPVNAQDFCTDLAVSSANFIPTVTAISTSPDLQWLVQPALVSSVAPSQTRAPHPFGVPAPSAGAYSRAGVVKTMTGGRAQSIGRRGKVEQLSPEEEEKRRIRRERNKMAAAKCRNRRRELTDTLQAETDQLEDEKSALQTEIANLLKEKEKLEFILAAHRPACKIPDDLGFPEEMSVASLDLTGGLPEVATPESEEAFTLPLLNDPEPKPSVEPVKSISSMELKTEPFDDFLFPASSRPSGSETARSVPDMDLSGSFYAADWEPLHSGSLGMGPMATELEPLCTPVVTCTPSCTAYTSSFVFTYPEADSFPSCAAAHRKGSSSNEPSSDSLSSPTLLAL
Chain of NFE2L3 (human) (Q9Y4A8 whole entry): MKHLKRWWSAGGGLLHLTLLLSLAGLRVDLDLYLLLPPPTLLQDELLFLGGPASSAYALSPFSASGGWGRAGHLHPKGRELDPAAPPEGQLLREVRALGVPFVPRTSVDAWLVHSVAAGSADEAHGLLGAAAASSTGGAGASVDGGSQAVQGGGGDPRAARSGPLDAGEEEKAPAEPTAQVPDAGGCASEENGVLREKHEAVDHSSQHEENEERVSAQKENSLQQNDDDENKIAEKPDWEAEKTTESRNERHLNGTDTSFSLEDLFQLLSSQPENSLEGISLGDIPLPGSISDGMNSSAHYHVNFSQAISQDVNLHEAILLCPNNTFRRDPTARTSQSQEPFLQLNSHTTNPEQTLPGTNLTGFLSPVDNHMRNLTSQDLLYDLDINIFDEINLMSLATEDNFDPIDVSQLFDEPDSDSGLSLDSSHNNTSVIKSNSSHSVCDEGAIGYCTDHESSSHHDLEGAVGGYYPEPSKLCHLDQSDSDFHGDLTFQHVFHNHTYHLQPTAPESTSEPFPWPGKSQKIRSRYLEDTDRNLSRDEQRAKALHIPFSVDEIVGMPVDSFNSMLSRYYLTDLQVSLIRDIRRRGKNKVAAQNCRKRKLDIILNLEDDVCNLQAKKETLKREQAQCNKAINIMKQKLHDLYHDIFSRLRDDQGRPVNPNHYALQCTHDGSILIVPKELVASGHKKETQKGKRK
Chain of ATF6B (Q99941 whole entry): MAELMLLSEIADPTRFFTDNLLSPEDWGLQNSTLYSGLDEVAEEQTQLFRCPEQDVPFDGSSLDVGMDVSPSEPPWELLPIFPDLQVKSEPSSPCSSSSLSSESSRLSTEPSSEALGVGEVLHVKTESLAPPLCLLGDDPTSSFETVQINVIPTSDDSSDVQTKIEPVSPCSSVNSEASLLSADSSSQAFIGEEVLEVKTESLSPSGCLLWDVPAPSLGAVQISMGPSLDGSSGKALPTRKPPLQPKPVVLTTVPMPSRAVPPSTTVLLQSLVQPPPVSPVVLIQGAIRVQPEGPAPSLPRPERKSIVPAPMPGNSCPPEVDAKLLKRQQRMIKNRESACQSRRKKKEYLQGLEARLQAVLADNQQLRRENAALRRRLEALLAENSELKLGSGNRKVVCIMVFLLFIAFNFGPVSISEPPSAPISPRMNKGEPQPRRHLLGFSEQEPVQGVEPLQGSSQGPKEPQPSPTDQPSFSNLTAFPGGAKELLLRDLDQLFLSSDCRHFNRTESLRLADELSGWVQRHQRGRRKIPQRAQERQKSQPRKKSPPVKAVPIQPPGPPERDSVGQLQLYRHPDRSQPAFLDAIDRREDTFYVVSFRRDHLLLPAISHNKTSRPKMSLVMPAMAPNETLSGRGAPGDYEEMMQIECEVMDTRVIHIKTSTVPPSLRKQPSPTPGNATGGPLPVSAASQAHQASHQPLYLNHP
Chain of BACH1 (O14867 whole entry): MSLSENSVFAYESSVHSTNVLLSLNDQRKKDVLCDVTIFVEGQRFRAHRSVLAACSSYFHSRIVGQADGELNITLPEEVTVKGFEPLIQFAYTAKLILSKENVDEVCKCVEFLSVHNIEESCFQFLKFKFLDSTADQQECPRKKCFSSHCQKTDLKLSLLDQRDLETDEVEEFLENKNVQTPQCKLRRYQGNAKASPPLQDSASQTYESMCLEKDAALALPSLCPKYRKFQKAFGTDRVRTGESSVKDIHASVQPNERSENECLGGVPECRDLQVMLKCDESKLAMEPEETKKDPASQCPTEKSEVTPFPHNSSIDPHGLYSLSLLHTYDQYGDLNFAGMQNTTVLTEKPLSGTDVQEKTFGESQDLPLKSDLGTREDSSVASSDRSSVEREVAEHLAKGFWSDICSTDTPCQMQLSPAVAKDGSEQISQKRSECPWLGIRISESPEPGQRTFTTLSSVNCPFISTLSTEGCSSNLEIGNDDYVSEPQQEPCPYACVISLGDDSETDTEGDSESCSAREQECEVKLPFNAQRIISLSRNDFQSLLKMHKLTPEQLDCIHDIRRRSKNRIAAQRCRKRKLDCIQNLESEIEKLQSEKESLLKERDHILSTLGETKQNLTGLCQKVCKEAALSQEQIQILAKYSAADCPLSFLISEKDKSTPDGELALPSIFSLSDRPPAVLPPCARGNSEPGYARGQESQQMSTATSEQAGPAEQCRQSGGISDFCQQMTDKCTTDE
Chain of ATF2 (human) (P15336 whole entry): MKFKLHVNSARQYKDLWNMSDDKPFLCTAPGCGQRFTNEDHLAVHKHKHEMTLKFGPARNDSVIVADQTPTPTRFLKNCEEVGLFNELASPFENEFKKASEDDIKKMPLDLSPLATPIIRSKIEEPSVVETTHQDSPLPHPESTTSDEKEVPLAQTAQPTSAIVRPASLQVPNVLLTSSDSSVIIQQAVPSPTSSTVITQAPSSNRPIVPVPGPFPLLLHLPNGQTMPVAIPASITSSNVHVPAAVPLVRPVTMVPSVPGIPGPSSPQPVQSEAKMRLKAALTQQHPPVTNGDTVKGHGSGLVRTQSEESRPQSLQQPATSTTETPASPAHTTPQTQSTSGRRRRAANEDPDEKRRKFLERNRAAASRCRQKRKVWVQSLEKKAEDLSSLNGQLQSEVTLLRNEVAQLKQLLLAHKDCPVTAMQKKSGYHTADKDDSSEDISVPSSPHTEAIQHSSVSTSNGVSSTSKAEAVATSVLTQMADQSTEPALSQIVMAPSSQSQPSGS
Chain of Activating Transcription Factor (ATF) 3 (human) (P18847 whole entry): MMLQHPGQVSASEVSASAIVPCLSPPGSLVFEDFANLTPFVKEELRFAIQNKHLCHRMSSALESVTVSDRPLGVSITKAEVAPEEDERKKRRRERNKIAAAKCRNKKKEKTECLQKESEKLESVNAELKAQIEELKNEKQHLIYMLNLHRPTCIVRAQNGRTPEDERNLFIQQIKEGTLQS
Chain of X-box binding protein 1 (human) (P17861 whole entry): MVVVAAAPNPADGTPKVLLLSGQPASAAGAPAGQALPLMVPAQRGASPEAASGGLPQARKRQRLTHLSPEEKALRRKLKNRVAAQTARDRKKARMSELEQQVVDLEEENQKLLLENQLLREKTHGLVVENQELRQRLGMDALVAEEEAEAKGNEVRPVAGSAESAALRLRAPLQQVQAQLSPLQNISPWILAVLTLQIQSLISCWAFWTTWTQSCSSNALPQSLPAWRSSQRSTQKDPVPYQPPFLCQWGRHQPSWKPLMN

Kd (ATF6B): 1000 nM | Kd (BACH1): > 5000 nM | Kd (FOS): 1000 nM | Kd (MAF): > 5000 nM | Kd (MAFB): > 5000 nM | Kd (MAFF (human)): > 5000 nM | Kd (MAFG [2]): 1000 nM | Kd (NFE2L3 (human)): 1000 nM | Kd (NFIL3 (human)): 22.8 nM and 23.3 nM and 22.6 nM | Kd (ATF2 (human)): > 5000 nM | Kd (MAFG [3]): > 5000 nM | Kd [4]: > 5000 nM
B1: ATF4-d1 labeled at the C-terminus (designed binder)
chain: GESKEYKKGSGSNQIKTLRTRLSKLRKDNLQLEKDIANLERKAKDLRAEKEQLEYELGC
modifications: also: C59 label by assay: Rhodamine Red C2-maleimide or fluorescein-5-maleimide
notes: solubility linker after the His6 tag; added to the C-terminus for labeling; one molecule for the rhodamine- and the fluorescein-labelled form; the assay tells which label stood there; also called ATF4-d1-Rhodamine; ATF4-d1-FITC; source: E. coli RP3098, purified (Ni-NTA under denaturing conditions, reverse-phase HPLC)
Kd [1]: 1 nM

Kd [5]: > 5000 nM | Kd (BACH2 [6]): > 5000 nM | Kd (BACH2 [7]): > 5000 nM | Kd (HLF (human)): > 5000 nM | Kd (NFE2L1): > 5000 nM
B2: ATF5-d1 labeled at the C-terminus (designed binder)
chain: GESKEYKKGSGSKRIAYLRQRIAELRNENHVLESRIQRMEKEKDALQQDRDHLEYELGC(Rhodamine Red C2‑maleimide)
modifications: not fully specified
